In paper PMC10201420, “Structural basis for guide RNA selection by the RESC1–RESC2 complex”:

T1: RESC1;RESC2 (Trypanosoma brucei;Trypanosoma brucei, UniProt Q57XL7;Q586X1 22-473;33-492, |)
T1 sequence 1: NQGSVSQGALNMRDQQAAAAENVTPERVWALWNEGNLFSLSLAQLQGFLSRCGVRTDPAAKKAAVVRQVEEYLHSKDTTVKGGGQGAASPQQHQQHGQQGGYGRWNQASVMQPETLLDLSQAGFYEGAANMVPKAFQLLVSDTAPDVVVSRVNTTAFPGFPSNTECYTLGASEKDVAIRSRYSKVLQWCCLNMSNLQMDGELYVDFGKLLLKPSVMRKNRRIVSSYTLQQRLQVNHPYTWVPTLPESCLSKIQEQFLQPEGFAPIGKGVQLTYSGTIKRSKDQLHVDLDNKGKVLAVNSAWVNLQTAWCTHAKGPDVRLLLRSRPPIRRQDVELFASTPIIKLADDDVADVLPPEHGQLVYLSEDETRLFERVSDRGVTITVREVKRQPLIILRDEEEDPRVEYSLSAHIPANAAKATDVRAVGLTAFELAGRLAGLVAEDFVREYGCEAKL
T1 sequence 2: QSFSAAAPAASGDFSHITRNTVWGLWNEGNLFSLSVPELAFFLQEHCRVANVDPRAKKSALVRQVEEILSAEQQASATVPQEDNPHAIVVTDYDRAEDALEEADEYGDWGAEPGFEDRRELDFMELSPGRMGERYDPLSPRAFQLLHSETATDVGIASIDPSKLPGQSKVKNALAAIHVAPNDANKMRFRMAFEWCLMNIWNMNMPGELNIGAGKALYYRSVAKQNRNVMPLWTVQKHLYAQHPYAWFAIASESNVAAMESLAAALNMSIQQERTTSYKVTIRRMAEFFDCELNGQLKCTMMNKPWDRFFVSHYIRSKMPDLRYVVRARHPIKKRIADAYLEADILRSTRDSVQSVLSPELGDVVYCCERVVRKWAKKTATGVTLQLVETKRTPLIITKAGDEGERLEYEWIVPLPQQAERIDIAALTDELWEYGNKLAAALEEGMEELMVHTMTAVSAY

B1: gRNA gND7(506), 5'-triphosphate (ssRNA)
RNA: GGGAUAUAAAUACGAUGUAAAUAACCUGUAGUAUAGUUAGUGUAUAUAGUGAAA
modifications: 5'-triphosphate
B2: gRNA gND7(506), 5'-hydroxyl (ssRNA)
RNA: B1 RNA
modifications: 5'-OH, no triphosphate

Experiments:
RESC1;RESC2 = biological target: T1, RESC1;RESC2; test: analytical SEC; SEC: 20 mM HEPES pH 7.5, 2 mM MgCl2, 1 mM DTT, variable NaCl; purification at 4 C; exact binding assay salt and temperature not in material; conditions: protein: recombinant;recombinant; tags: N-terminal 6xHis-3C (cleaved when needed);none; copies: 1;1
RESC1;RESC2 K311S/R402D = RESC1;RESC2 K311S/R402D (Trypanosoma brucei;Trypanosoma brucei, UniProt Q57XL7;Q586X1 22-473;33-492, |K311S;R402D); test: as above; conditions: protein: recombinant;recombinant; tags: N-terminal 6xHis-3C (cleaved when needed);none; copies: 1;1

| Binder | binding result (RESC1;RESC2) | binding result (RESC1;RESC2 K311S/R402D) |
| --- | --- | --- |
| B1 | binds | no binding |
| B2 | no binding |  |
